B1: Gamma-aminobutyric acid receptor-associated protein (Homo sapiens), O95166 (parent)
chain: MKFVYKEEHPFEKRRSEGEKIRKKYPDRVPVIVEKAPKARIGDLDKKKYLVPSDLTVGQFYFLIRKRIHLRAEDALFFFVNNVIPPTSATMGQLYQEHHEEDFFLYIAYSDESVYGL
partner: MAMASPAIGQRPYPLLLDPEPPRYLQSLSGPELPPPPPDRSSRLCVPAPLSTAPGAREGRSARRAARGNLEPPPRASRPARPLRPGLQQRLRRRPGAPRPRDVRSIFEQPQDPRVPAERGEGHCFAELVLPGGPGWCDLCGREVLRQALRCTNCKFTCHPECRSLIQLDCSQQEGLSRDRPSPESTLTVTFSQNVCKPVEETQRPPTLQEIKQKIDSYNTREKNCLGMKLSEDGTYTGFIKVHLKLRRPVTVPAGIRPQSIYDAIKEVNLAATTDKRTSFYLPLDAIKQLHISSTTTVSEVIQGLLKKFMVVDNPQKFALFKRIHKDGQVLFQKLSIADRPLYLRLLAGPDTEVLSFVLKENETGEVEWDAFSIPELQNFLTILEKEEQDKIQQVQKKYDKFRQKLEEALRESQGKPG
B2: Gamma-aminobutyric acid receptor-associated protein (Homo sapiens), O95166 (parent)
chain: B1 chain
partner: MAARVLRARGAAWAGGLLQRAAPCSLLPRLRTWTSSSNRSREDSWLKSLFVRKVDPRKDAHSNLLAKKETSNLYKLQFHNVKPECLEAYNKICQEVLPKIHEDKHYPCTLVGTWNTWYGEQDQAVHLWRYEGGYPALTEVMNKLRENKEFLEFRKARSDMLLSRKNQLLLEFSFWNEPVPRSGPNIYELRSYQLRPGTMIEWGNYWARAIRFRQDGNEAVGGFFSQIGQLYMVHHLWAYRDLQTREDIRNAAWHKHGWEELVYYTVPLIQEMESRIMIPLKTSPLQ
B3: Gamma-aminobutyric acid receptor-associated protein (Homo sapiens), O95166 (parent)
chain: B1 chain
partner: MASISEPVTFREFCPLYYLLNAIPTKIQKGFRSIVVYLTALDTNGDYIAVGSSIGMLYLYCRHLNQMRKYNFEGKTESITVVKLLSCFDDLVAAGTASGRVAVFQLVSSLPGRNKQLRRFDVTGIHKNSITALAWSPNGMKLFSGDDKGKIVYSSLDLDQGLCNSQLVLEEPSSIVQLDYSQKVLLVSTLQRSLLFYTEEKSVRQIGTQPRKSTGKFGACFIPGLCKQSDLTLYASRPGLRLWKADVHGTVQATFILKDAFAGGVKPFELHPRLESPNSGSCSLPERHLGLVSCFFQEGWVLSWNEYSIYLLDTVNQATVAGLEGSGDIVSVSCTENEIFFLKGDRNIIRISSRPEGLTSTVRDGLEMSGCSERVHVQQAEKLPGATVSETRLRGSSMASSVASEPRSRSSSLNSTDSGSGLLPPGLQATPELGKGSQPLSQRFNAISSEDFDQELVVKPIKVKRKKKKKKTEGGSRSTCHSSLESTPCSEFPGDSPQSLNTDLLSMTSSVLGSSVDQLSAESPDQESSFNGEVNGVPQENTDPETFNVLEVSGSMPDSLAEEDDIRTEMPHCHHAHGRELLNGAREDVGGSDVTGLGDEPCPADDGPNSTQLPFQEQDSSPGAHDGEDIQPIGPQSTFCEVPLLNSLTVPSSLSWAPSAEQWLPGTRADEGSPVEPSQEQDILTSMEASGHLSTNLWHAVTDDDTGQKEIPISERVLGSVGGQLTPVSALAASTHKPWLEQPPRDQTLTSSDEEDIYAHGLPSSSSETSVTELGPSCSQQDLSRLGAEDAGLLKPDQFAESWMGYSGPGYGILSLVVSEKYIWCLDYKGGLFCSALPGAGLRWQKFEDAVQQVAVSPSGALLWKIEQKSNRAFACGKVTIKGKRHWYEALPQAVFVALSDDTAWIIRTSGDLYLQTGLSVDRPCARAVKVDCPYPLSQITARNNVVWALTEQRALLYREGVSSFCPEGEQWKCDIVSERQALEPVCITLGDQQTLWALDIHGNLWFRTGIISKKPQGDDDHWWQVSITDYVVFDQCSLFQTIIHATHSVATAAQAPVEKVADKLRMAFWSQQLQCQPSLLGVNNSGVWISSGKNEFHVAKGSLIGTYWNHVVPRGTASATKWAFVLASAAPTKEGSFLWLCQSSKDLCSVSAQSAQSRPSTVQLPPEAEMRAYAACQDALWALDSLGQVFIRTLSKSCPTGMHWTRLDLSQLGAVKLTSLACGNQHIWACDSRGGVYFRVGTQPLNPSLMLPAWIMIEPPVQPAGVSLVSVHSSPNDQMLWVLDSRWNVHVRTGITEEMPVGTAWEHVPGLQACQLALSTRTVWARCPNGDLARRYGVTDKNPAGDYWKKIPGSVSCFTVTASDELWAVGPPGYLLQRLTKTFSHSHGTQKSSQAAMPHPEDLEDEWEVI
B4: Gamma-aminobutyric acid receptor-associated protein (Homo sapiens), O95166 (parent)
chain: B1 chain
partner: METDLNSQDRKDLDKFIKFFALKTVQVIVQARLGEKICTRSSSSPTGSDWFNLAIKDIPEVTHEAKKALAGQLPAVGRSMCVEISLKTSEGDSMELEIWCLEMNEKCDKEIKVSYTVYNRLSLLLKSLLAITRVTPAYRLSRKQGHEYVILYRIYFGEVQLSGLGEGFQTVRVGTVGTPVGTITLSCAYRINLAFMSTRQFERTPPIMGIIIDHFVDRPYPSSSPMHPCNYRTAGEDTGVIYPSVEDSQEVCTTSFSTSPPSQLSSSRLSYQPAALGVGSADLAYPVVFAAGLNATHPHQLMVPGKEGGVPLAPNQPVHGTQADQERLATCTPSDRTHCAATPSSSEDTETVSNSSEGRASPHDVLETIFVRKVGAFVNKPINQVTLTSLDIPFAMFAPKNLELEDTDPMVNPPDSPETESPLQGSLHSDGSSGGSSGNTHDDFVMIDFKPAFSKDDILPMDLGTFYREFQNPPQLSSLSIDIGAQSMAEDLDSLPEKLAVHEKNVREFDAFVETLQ
B5: Gamma-aminobutyric acid receptor-associated protein (Homo sapiens), O95166 (parent)
chain: B1 chain
partner: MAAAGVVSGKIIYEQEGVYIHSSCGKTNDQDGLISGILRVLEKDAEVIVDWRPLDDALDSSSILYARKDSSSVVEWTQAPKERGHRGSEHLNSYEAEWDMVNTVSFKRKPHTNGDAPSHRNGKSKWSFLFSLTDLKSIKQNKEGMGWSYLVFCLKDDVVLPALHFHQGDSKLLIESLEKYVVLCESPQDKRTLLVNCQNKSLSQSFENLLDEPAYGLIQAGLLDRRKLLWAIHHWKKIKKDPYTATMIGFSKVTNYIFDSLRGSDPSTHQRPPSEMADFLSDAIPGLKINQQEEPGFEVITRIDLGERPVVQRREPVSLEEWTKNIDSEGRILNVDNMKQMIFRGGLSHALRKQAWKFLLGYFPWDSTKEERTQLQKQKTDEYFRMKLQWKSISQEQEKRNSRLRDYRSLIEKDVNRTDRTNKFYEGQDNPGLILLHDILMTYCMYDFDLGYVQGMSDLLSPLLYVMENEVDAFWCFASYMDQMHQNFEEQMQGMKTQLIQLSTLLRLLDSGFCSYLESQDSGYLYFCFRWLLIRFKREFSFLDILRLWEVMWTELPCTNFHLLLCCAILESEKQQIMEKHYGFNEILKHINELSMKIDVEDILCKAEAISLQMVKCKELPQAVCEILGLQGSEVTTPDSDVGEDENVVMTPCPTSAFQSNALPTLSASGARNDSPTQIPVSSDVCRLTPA
B6: Gamma-aminobutyric acid receptor-associated protein (Homo sapiens), O95166 (parent)
chain: B1 chain
partner: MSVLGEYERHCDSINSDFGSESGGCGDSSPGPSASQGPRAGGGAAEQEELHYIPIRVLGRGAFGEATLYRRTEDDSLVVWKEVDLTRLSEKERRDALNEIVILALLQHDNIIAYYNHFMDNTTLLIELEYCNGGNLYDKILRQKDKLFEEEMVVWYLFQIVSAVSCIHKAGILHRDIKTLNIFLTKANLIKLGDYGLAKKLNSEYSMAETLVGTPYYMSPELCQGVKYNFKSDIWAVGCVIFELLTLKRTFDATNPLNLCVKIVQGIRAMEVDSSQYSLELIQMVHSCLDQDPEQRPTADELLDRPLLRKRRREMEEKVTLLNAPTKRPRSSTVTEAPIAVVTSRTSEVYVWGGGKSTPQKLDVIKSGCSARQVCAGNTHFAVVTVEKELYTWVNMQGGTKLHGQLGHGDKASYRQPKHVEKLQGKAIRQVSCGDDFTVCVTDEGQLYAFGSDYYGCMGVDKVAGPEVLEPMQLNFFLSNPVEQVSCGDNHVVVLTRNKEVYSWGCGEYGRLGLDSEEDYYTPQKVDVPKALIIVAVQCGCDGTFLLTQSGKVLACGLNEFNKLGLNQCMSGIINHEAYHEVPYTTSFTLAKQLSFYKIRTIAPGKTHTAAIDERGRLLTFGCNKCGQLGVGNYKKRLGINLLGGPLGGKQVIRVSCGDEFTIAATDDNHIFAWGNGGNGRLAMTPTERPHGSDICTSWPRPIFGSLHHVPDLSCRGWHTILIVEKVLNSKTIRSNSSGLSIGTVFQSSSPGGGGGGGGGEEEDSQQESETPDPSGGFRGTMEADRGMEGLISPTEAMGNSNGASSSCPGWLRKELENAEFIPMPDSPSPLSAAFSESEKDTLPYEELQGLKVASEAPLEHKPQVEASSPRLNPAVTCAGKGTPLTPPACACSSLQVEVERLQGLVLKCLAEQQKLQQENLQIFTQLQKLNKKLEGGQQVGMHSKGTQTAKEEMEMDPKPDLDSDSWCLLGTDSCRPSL

Variants of: B1
Conditions: with rasf5_human RASSF5, Q8WWW0

Variant | effect of a mutation on the interaction
Y49A;L50A | increasing interaction

Variants of: B2
Conditions: with nips2_human NIPSNAP2, O75323

Variant | effect of a mutation on the interaction
Y49A;L50A | increasing interaction

Variants of: B3
Conditions: with tcpr2_human TECPR2, O15040

Variant | effect of a mutation on the interaction
Y49A;L50A | decreasing interaction

Variants of: B4
Conditions: with atg13_human ATG13, O75143

Variant | effect of a mutation on the interaction
Y49A;L50A | decreasing interaction

Variants of: B5
Conditions: with tbc15_human TBC1D15, Q8TC07

Variant | effect of a mutation on the interaction
Y49A;L50A | disrupting interaction

Variants of: B6
Conditions: with nek9_human NEK9, Q8TD19

Variant | effect of a mutation on the interaction
Y49A;L50A | decreasing interaction

Source: IntAct's records for PubMed 20562859
